Residue numbers refer to the chain shown, from its start. Each block holds one binder with its values, some of them ahead of it.
Legend:
[1] = biological target: T1, human CD47 extracellular domain with C-terminal 6×His tag (human, UniProt Q08722 19-139, limits assumed); test: ELISA on human CD47
T1 construct: extracellular domain; Made in Expi293F cells (section 5.4.1); also called recombinant CD47; huCD47

[2] = biological target: T2, human EpCAM extracellular domain with C-terminal His tag (Novoprotein #C339) (human, UniProt P16422 24-265); test: assay not given; ranks EpCAM affinity among Bi-1, Bi-2 and Bi-8
T2 construct: extracellular domain; Bought protein
T2 sequence (looked up): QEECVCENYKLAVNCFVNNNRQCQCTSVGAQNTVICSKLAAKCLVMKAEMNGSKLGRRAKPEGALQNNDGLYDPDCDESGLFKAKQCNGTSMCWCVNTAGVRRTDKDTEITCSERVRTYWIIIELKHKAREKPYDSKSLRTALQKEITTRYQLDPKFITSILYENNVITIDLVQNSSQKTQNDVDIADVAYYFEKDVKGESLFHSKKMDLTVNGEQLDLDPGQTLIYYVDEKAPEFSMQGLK

[3] = biological target: T3, CD47 expressed on human red blood cells (human, UniProt Q08722 19-323); test: flow cytometry on human red blood cells
T3 construct: whole, on cells; also called RBCs; RBC
Description: The RBC binding assay was performed by spinning down fresh human whole blood at 200 g for 10 minutes. Collected RBCs were washed twice with PBS and counted using flow cytometry. 1×10⁶ cells were dispensed into each well of a 96 well culture plate. Serially diluted anti-CD47 antibodies were added and incubated for 1 hour at 4° C. Cells were washed with FACS buffer (PBS+2% FBS) twice. […] Cells were washed twice and resuspended in 200 μl of FACS buffer and analyzed by flow cytometry.

[4] = biological target: T1, human CD47 extracellular domain with …; test: ELISA on human CD47; EC50 given as a bin, limits from the table's legend; lower limit of bin A
Description: (§1) A 96-well plate was coated overnight at 4° C. with 1 μg/ml recombinant CD47. After washing 3 times, the plate was blocked with 300 μl 1% BSA in PBST at 37° C. for 1 hour. Serially diluted antibodies were added and incubated at 37° C. for 1 hour. […] The plate was washed again 4 times with PBST, incubated with 3,3′,5,5′-tetramethylbenzidine (TMB) substrate for 15 min at room temperature, terminated with 1N HCl, and then read at 450 nm.

[5] = biological target: T1, human CD47 extracellular domain with …; test: ELISA on human CD47; EC50 given as a bin, limits from the table's legend; upper limit of bin A
Description: as §1

[6] = biological target: T1, human CD47 extracellular domain with …; test: ELISA on human CD47; EC50 given as a bin, limits from the table's legend; lower limit of bin C
Description: as §1

[7] = biological target: T1, human CD47 extracellular domain with …; test: ELISA on human CD47; EC50 given as a bin, limits from the table's legend; upper limit of bin C
Description: as §1

[8] = biological target: T1, human CD47 extracellular domain with …; test: ELISA on human CD47; EC50 given as a bin, limits from the table's legend; lower limit of bin B
Description: as §1

[9] = biological target: T1, human CD47 extracellular domain with …; test: ELISA on human CD47; EC50 given as a bin, limits from the table's legend; upper limit of bin B
Description: as §1

B1: Bi-8 (3C-KIH EpCAM × CD47 scFv bispecific antibody) (bispecific antibody)
chain: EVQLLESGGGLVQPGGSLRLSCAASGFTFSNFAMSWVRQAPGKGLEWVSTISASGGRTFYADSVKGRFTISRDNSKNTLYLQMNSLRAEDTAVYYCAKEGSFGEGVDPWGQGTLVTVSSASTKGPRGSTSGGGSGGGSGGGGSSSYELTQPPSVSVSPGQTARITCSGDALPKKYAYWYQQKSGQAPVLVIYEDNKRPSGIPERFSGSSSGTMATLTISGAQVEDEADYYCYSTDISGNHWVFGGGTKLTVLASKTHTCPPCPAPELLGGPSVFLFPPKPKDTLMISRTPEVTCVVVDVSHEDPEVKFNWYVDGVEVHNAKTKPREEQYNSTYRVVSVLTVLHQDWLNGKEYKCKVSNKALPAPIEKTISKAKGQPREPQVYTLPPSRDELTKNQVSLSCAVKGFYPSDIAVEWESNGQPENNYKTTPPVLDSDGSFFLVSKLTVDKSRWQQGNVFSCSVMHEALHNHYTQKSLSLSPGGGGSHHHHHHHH
heavy: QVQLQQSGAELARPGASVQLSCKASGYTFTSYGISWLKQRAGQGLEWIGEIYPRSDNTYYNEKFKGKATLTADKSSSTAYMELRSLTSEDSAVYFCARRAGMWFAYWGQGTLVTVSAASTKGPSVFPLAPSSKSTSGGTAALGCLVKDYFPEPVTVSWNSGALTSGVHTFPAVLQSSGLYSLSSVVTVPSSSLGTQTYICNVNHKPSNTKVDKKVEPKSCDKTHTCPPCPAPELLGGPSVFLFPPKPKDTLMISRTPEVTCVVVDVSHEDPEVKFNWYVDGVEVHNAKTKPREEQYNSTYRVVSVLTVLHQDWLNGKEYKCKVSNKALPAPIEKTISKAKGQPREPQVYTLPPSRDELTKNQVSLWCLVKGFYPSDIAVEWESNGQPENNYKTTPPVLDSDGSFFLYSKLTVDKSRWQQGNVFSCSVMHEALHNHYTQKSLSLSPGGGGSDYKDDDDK
VL: EIVLTQSPAITAASLGQKVTITCSASSSVSDMHWYQQKSGTSPKPWIYEISKLASGVPTRFSGSGSGTSYSLTISSMEAEDAAIYYCQHWSYPLMTFGGGTKLEIK
notes: Three-chain knob-into-hole format
binding result [1]: binds
binding result [2]: binds

B2: VIR47 hIgG1 (antibody)
heavy: not shown
light: SYEMTQPPSVSVSPGQTARITCSGDALPKKYAYWYQQKSGQAPVLVIYEDNKRPSGIPERFSGSSSGTMATLTISGAQVEDEADYYCYSTDISGNHWVFGGGTELTVLGQPKAAPSVTLFPPSSEELQANKATLVCLISDFYPGAVTVAWKADSSPVKAGVETTTPSKQSNNKYAASSYLSLTPEQWKSHRSYSCQVTHEGSTVEKTVAPTECS
notes: also called VIR47 IgG1; IgG1 form of VIR47
fold higher concentration required for RBC binding, against CD47 BMK-1 [3]: > 20 fold
EC50 [4]: ≥ 0.01 nM
EC50 [5]: ≤ 0.15 nM

Continued, values first:

EC50 [6]: ≥ 0.4 nM
EC50 [7]: ≤ 5 nM
B3: VIR47 IgG1 HC F98A (antibody, V domains shown)
VH: EVQLLESGGGLVQPGGSLRLSCAASGFTFSNFAMSWVRQAPGKGLEWVSTISASGGRTFYADSVKGRITISRDNSKNTLFLQMNGLRAEDTAVYYCAKEGSAGEGVDPWGQGTLVTVSS
VL: SYEMTQPPSVSVSPGQTARITCSGDALPKKYAYWYQQKSGQAPVLVIYEDNKRPSGIPERFSGSSSGTMATLTISGAQVEDEADYYCYSTDISGNHWVFGGGTELTVLG
notes: Alanine-scan variant of the IgG1 form of VIR47; position in Kabat-style numbering, not the linear count on the entry

EC50 [8]: ≥ 0.15 nM
EC50 [9]: ≤ 0.4 nM
B4: VIR47 IgG1 HC G99A (antibody, V domains shown)
VH: B3 VH with A102F, G103A
VL: B3 VL
notes: as for B3

EC50 [8]: ≥ 0.15 nM
EC50 [9]: ≤ 0.4 nM
B5: VIR47 IgG1 HC G100aA (antibody, V domains shown)
VH: B3 VH with A102F, G105A
VL: B3 VL
notes: as for B3

— patent US20230159663A1 (VIRTUOSO BINCO, published 2023)
